Results: PMC3553976

Target: U2AF65 (UniProt P26368)
Experiment: NMR binding data
Conditions: reference: non-phosphorylated SF1 construct; sites S80,S82

splicing factor 1 (SF1) (from UniProt Q15637) KIS-phosphorylated SF1 construct
binding against the reference: same
